Assay results taken from the supplement of paper PMC9112550, “Optimization of the antimicrobial peptide Bac7 by deep mutational scanning” (BMC Biology, 2022).

test system: Escherichia coli TOP10; assay: shrunken log2 fold change of peptide-encoding DNA abundance (4.5 h post-induction vs induction); higher = less antimicrobial activity (less host growth inhibition); details: time post-induction: 4.5 h; library: site-saturation at positions 5, 18, 19, 20
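Further: peptides expressed intracellularly from a pBAD plasmid library in pooled LB shake-flask culture, induced with 0.3% L-arabinose, DNA abundance read by NGS, three biological replicates, DESeq2 with apeglm shrinkage.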

Row | Sequence | shrunken log2 fold change
1 | RRIRHRPPRLPRPRPRPHSRPRP | 0.0183
2 | RRIRHRPPRLPRPRPRPHTKPRP | -0.0831
3 | RRIRHRPPRLPRPRPRPHTMPRP | -0.0685
4 | RRIRHRPPRLPRPRPRPHTTPRP | -0.491
5 | RRIRHRPPRLPRPRPRPHYLPRP | 0.0305
6 | RRIRHRPPRLPRPRPRPIACPRP | 0.0428
7 | RRIRHRPPRLPRPRPRPIAQPRP | -0.0267
8 | RRIRHRPPRLPRPRPRPICFPRP | -0.114
9 | RRIRHRPPRLPRPRPRPICKPRP | -0.204
10 | RRIRHRPPRLPRPRPRPIDFPRP | 0.0271
11 | RRIRHRPPRLPRPRPRPIDTPRP | -0.291
12 | RRIRHRPPRLPRPRPRPIEDPRP | 0.0058
13 | RRIRHRPPRLPRPRPRPIENPRP | -0.143
14 | RRIRHRPPRLPRPRPRPIKCPRP | -0.87
15 | RRIRHRPPRLPRPRPRPIKMPRP | -0.0865
16 | RRIRHRPPRLPRPRPRPIKVPRP | 0.172
17 | RRIRHRPPRLPRPRPRPILNPRP | -0.186
18 | RRIRHRPPRLPRPRPRPINGPRP | -0.437
19 | RRIRHRPPRLPRPRPRPIPLPRP | -0.193
20 | RRIRHRPPRLPRPRPRPIPRPRP | -0.0447
21 | RRIRHRPPRLPRPRPRPIQQPRP | -0.15
22 | RRIRHRPPRLPRPRPRPISPPRP | -0.256
23 | RRIRHRPPRLPRPRPRPISSPRP | -0.202
24 | RRIRHRPPRLPRPRPRPISTPRP | -0.578
25 | RRIRHRPPRLPRPRPRPITSPRP | -0.401

Row | Sequence | shrunken log2 fold change
26 | RRIRHRPPRLPRPRPRPIWAPRP | 0.0355
27 | RRIRHRPPRLPRPRPRPIWGPRP | 0.226
28 | RRIRHRPPRLPRPRPRPIWKPRP | -0.0276
29 | RRIRHRPPRLPRPRPRPIYQPRP | -0.316
30 | RRIRHRPPRLPRPRPRPIYWPRP | -0.181
31 | RRIRHRPPRLPRPRPRPKDDPRP | -0.152
32 | RRIRHRPPRLPRPRPRPKDVPRP | 0.0703
33 | RRIRHRPPRLPRPRPRPKERPRP | -0.0122
34 | RRIRHRPPRLPRPRPRPKFHPRP | -0.429
35 | RRIRHRPPRLPRPRPRPKLFPRP | 0.0628
36 | RRIRHRPPRLPRPRPRPKLKPRP | -0.0873
37 | RRIRHRPPRLPRPRPRPKMNPRP | -0.487
38 | RRIRHRPPRLPRPRPRPKNSPRP | -0.487
39 | RRIRHRPPRLPRPRPRPKNVPRP | -0.0354
40 | RRIRHRPPRLPRPRPRPKPMPRP | 0.223
41 | RRIRHRPPRLPRPRPRPKPRPRP | 0.177
42 | RRIRHRPPRLPRPRPRPKPVPRP | 0.239
43 | RRIRHRPPRLPRPRPRPKPWPRP | 0.528
44 | RRIRHRPPRLPRPRPRPKRMPRP | 0.101
45 | RRIRHRPPRLPRPRPRPKSTPRP | -0.0868
46 | RRIRHRPPRLPRPRPRPKTFPRP | -0.45
47 | RRIRHRPPRLPRPRPRPKVSPRP | -0.112
48 | RRIRHRPPRLPRPRPRPKWWPRP | 0.0178
49 | RRIRHRPPRLPRPRPRPLAVPRP | 0.0391
50 | RRIRHRPPRLPRPRPRPLFAPRP | 0.107

Row | Sequence | shrunken log2 fold change
51 | RRIRHRPPRLPRPRPRPLGSPRP | 0.0703
52 | RRIRHRPPRLPRPRPRPLIIPRP | -0.377
53 | RRIRHRPPRLPRPRPRPLLHPRP | -0.238
54 | RRIRHRPPRLPRPRPRPLLTPRP | -0.338
55 | RRIRHRPPRLPRPRPRPLMTPRP | -0.192
56 | RRIRHRPPRLPRPRPRPLNLPRP | 0.00301
57 | RRIRHRPPRLPRPRPRPLPEPRP | 0.126
58 | RRIRHRPPRLPRPRPRPLQGPRP | 0.00978
59 | RRIRHRPPRLPRPRPRPLRPPRP | 0.639
60 | RRIRHRPPRLPRPRPRPLSPPRP | -0.0711
61 | RRIRHRPPRLPRPRPRPLTEPRP | -0.342
62 | RRIRHRPPRLPRPRPRPLTGPRP | -0.00273
63 | RRIRHRPPRLPRPRPRPLVCPRP | -9.35e-05
64 | RRIRHRPPRLPRPRPRPLWCPRP | -0.22
65 | RRIRHRPPRLPRPRPRPLWRPRP | 0.57
66 | RRIRHRPPRLPRPRPRPLYWPRP | -0.276
67 | RRIRHRPPRLPRPRPRPMCHPRP | -0.00674
68 | RRIRHRPPRLPRPRPRPMCMPRP | 0.201
69 | RRIRHRPPRLPRPRPRPMDNPRP | -0.262
70 | RRIRHRPPRLPRPRPRPMDSPRP | -0.00141
71 | RRIRHRPPRLPRPRPRPMFFPRP | -0.347
72 | RRIRHRPPRLPRPRPRPMFKPRP | -0.625
73 | RRIRHRPPRLPRPRPRPMFPPRP | -0.281
74 | RRIRHRPPRLPRPRPRPMHMPRP | -0.0761
75 | RRIRHRPPRLPRPRPRPMIHPRP | -0.382
